{"source": "paper PMC2828873", "about": "(2009)", "binders": {"B1": {"name": "Shank3 PDZ (protein)", "chain": "DDKVAILQKRDHEGFGFVLRGAKAETPIEEFTPTPAFPALQYLESVDVEGVAWKAGLRTGDFLIEVNGVNVVKVGHKQVVGLIRQGGNRLVMKVVSVTRKP"}}, "target": "Stargazin-derived probe 12 (Rattus norvegicus, UniProt Q71RJ2, N-acetyl, X=Dab(4-DMAP), NRR added)", "assay": "fluorescence titration"}
{"binder": "B1", "values": [{"measurement": "Kd", "value": 10, "unit": "µM"}]}
